The values below come from US20250011363A1, “OPTIMIZED SHORTENED PEPTIDE THAT BINDS TO ACETYLCHOLINE RECEPTOR, AND USE THEREOF” (SKINMED CO., LTD., priority 2021, published 2025).

Assay [1] addresses acetylcholine receptor. In words: SPR, AchR immobilized on chip, peptide at 10 uM. For orientation: In SPR one partner is held on a chip, and binding of the other changes the refractive index at the surface.
In assay [2] the target is acetylcholine receptor. As to the kind of experiment: SPR, peptide at 10 uM over immobilized acetylcholine receptor.

The molecule KLFCKK [6mer-2-67] gave a Binding affinity in assay [1] of 124 RU. Molecule RSLTKK [6mer-2-45] had a Binding affinity in assay [1] of 121 RU. Regarding RRLCRK [6mer-2-32], the Binding affinity in assay [1] stood at 139 RU. Still for that read-out and setting: with RVLSRK [6mer-2-59] the figure was 123 RU; with KSVSKK [6mer-2-64], 136 RU; with RWVTRR [6mer-2-17], 142 RU.

The molecule RVITKR [6mer-2-43] came in with a Binding affinity in assay [1] of 146 RU. Consider RLFTRK [6mer-2-21], for which, in assay [1], the Binding affinity is 141 RU. As to KVIRRK [6mer-2-27], the Binding affinity in assay [1] amounted to 128 RU. Regarding KSVRRK [6mer-2-44], the Binding affinity in assay [1] is 145 RU. Same read-out and setting: to RQFRKK [6mer-2-33] belongs 142 RU; to KVLSRK [6mer-2-28], 142 RU. For KLQSRR [6mer-2-47], the Binding affinity in assay [1] amounted to 148 RU. For the molecule KLLSKR [6mer-2-42], in assay [1], the Binding affinity was 126 RU.

KGVCRR [6mer-2-16] yielded a Binding affinity in assay [1] of 121 RU.

In turn, KQFLKK [6mer-2-51] showed a Binding affinity in assay [1] of 139 RU. Turning to RWFYKK [6mer-2-135], in assay [2], the Binding affinity (RU) stood at 124 RU. On to RQYTRK [6mer-2-13], for which the Binding affinity in assay [1] came out at 123 RU. For RRYRKK [6mer-2-40], the Binding affinity in assay [1] amounted to 153 RU. Turning to KSFRKR [6mer-2-63], in assay [1], the Binding affinity was determined as 121 RU. For the molecule KQVQKR [6mer-2-25], in assay [1], the Binding affinity was found to be 148 RU.

On to RRLSKK [6mer-2-60], for which the Binding affinity in assay [1] was determined as 148 RU.

KVFRRK [6mer-2-34] returned a Binding affinity in assay [1] of 124 RU. On the same count and under the same terms, with RLRCRK [6mer-2-49] the figure was 154 RU. In assay [1], KSLQKK [6mer-2-8] displayed a Binding affinity of 135 RU. In assay [1], KSRCRK [6mer-2-7] had a Binding affinity of 126 RU. In assay [1], RLVTKR [6mer-2-62] came in with a Binding affinity of 147 RU.

KQVRKR [6mer-2-15]: the Binding affinity in assay [1] worked out at 133 RU. The molecule KSYQRK [6mer-2-31] showed a Binding affinity in assay [1] of 121 RU. KLYLKR [6mer-2-46]: the Binding affinity in assay [1] was 153 RU. As to RWVSKR [6mer-2-5], the Binding affinity in assay [1] worked out at 124 RU. Same read-out and setting: with RWISRK [6mer-2-35] the figure was 148 RU; with RGRQKK [6mer-2-14], 153 RU. As to RRRLKK [6mer-2-1], in assay [1], the Binding affinity came to 131 RU. The molecule RRLQKK [6mer-2-36] came in with a Binding affinity in assay [1] of 131 RU. RWYLKR [6mer-2-2] had a Binding affinity in assay [1] of 139 RU. RQFYKK [6mer-2-30] displayed a Binding affinity in assay [1] of 139 RU.

In assay [1], RVIRRR [6mer-2-66] showed a Binding affinity of 123 RU. Turning to KGVCKR [6mer-2-65], the Binding affinity in assay [1] was determined as 148 RU. In the case of RSYYRR [6mer-2-4], the Binding affinity in assay [1] amounted to 125 RU.

In the case of RGFQRK [6mer-2-61], in assay [1], the Binding affinity stood at 148 RU.

The molecule KSICRR [6mer-2-6] showed a Binding affinity in assay [1] of 122 RU. For the molecule KGIQRK [6mer-2-24], the Binding affinity in assay [1] was determined as 141 RU. The molecule KLICRK [6mer-2-9] showed a Binding affinity in assay [1] of 139 RU. In turn, KVYSRK [6mer-2-3] had a Binding affinity in assay [1] of 148 RU. KQLCKR [6mer-2-41] returned a Binding affinity in assay [1] of 142 RU. The molecule RVQTRR [6mer-2-20] had a Binding affinity in assay [1] of 137 RU. In turn, KSLSRR [6mer-2-53] gave a Binding affinity in assay [1] of 125 RU.

Turning to KGRRRK [6mer-2-68], in assay [1], the Binding affinity came to 142 RU. As to KRQRKK [6mer-2-52], the Binding affinity in assay [1] turned out to be 136 RU. Same read-out and setting: to KLLYRK [6mer-2-37] belongs 148 RU; to KGRRRR [6mer-2-54], 124 RU. For RRFRKK [6mer-2-48], in assay [1], the Binding affinity worked out at 153 RU. Still for that read-out and setting: to RQYQRR [6mer-2-11] belongs 121 RU; to RSQRKR [6mer-2-29], 142 RU. As for RQIRKK [6mer-2-22], in assay [1], the Binding affinity stood at 124 RU. Same read-out and setting: to RCTNKR [6mer-2-1199] belongs 27 RU. In assay [1], RLFYKK [6mer-2-55] displayed a Binding affinity of 125 RU. As to KRLQRK [6mer-2-58], the Binding affinity in assay [1] amounted to 122 RU. Molecule RSQLRR [6mer-2-56] registered a Binding affinity in assay [1] of 149 RU. Same read-out and setting: with KQRCRR [6mer-2-57] the figure was 139 RU. For the molecule RHHNRR [6mer-2-1200], in assay [1], the Binding affinity was determined as 30 RU. In assay [1], RSQSKR [6mer-2-50] yielded a Binding affinity of 125 RU.

In assay [1], RSFSKK [6mer-2-19] returned a Binding affinity of 135 RU.

Consider KVFSKK [6mer-2-10], for which the Binding affinity in assay [1] turned out to be 124 RU. The molecule RWRYRK [6mer-2-39] registered a Binding affinity in assay [1] of 137 RU.

In turn, RQFQRK [6mer-2-12] gave a Binding affinity in assay [1] of 147 RU. In assay [1], RSILRR [6mer-2-18] gave a Binding affinity of 124 RU. Molecule RSYYKR [6mer-2-38] showed a Binding affinity in assay [1] of 136 RU. Turning to RWVRKK [6mer-2-23], the Binding affinity in assay [1] was 148 RU. Regarding RWRRKK [6mer-2-26], in assay [1], the Binding affinity was 121 RU.
